According to patent publication US20260049151A1 (SHENGHE CHINA BIOPHARMACEUTICAL, published 2026):

How the values were obtained:
[1] = molecular target: T1, Human-TNFR2-His (human, UniProt P20333 23-257); assay: BLI, antibody on AHC sensor, 100 nM TNFR2-His in solution
T1 construct: Bought protein; also called human TNFR2 protein; TNFR2 protein; not shown: His tag
T1 sequence (looked up): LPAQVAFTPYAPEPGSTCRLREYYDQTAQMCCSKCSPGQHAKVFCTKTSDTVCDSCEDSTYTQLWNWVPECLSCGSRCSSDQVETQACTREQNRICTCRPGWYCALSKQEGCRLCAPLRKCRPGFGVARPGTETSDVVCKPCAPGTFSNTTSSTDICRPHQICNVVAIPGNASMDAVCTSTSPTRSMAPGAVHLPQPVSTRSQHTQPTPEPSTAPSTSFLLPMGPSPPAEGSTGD
Description: The AHC sensor was soaked in 0.02% PBST (0.02% Tween 20, pH 7.4, 1×PBS) as a buffer for 600 s to remove the sucrose covering the sensor surface. The AHC sensor was equilibrated with 0.02% PBST (0.02% Tween 20, pH 7.4, 1×PBS) as a buffer for 60 s, the antibody in the sample plate was solidified for 300 s, and the secondary equilibration buffer was used for 180 s. 100 nM human-TNFR2-His (manufacturer: SINO, CAT: 10417-H08H, LOT: LC15NO0412) protein was bound to the antibody for 300 s and then dissociated for 600 s. After dissociation, 10 mM glycine (pH 2.0) was used as a regeneration buffer for 30 s. The sensor was regenerated with 10 mM glycine (pH 2.0).

[2] = molecular target: T2, Human 4-1BB His (human, UniProt Q07011 24-186); assay: BLI, antibody on AHC sensor, 100 nM 4-1BB His in solution
T2 construct: Bought protein; lots 198-2146F1-W6 and 2407c-214FF1-YC; also called human 4-1BB protein; 4-1BB protein; not shown: His tag
Excerpt: The variable region of the antibody sequence of the positive control consists of SEQ ID NO: 15 and SEQ ID NO: 19, with the addition of the constant region of human IgG1 (SEQ ID NO: 46 and SEQ ID NO: 47). The AHC sensor was soaked in 0.02% PBST (0.02% Tween 20, pH 7.4, 1× PBS) as a buffer for 600 s to remove the sucrose covering the sensor surface. The AHC sensor was equilibrated with 0.02% PBST (0.02% Tween 20, pH 7.4, 1× PBS) as a buffer for 60 s, the antibody in the sample plate was solidified for 300 s, and the secondary equilibration buffer was used for 180 s. 100 nM human 4-1BB His (manufacturer: Acro, CAT: 41B-H5258, LOT: 198-2146F1-W6) protein was bound to the antibody for 300 s and then dissociated for 600 s. After dissociation, 10 mM glycine (pH 2.0) was used as a regeneration buffer for 30 s. The sensor was regenerated with 10 mM glycine (pH 2.0).

[3] = molecular target: T3, Human 4-1BB Fc (human, UniProt Q07011 24-186); assay: bridging ELISA: Human 4-1BB Fc coated (0.3 ug/mL), antibody titrated, then Human-TNFR2-His (0.3 ug/mL), HRP anti-His detection (Example 4)
T3 construct: same catalogue and lot number as Human 4-1BB His; not shown: Fc
T3 sequence (Q07011 24-186 limits assumed): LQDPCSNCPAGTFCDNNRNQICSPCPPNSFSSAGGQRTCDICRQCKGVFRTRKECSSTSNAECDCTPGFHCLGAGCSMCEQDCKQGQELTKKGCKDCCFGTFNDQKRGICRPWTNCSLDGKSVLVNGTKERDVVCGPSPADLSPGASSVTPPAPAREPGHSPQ

T2 sequence (Q07011 24-186 limits assumed): as above

B1: Antibody H (bispecific antibody, human IgG1, kappa)
light: QVQLQESGPGLVKPSETLSLTCTVSGSSLTSYGVHWVRQPPGKCLEGLGVIWPGGSTNYNSALMSRVTISKDNSKSQVSLKMSSLTAADTAVYYCARVTGTWYFDVWGQGTTVTVSSGGGGSGGGGSGGGGSDIQMTQSPSSLSASLGDRVTISCSASQGISNYLNWYQQKPDGTVKLLIYYTSTLHSGVPSRFSGSGSGTDYTLTISSLQPEDIATYYCQQYSKLPWTFGCGTKLEIKGGGGSGGGGSGGGGSDIVMTQSPATLSVSPGERATLSCKASQNVGSNVDWYQQKPGQSPRVLIYKASIRYTGIPARFSGSGSGTEFTLTISILQSEDFAVYFCMQSKSYPITFGQGTKLEIKRTVAAPSVFIFPPSDEQLKSGTASVVCLLNNFYPREAKVQWKVDNALQSGNSQESVTEQDSKDSTYSLSSTLTLSKADYEKHKVYACEVTHQGLSSPVTKSFNRGEC
heavy: not shown
notes: IgG1 subtype; full-length TNFR2 antibody with 4-1BB scFv at the N-terminus of the light chains
Question: B1 was tested. Which Kd [1] did it give?
Answer: 241 pM

Question: What about the koff [1] of the same binder?
Answer: 6.64e-05 s⁻¹

Question: What about the kon [1] of the same binder?
Answer: 276000 M⁻¹ s⁻¹

Question: And the Kd [2]?
Answer: 6420 pM

Question: And the koff [2]?
Answer: 0.00435 s⁻¹

Question: What about the kon [2] of the same binder?
Answer: 677000 M⁻¹ s⁻¹

Question: And the “EC50 (read off the curve)” value [3]?
Answer: ~300 pM

B2: Antibody E1 (bispecific antibody, human IgG1, kappa)
light: DIVMTQSPATLSVSPGERATLSCKASQNVGSNVDWYQQKPGQSPRVLIYKASIRYTGIPARFSGSGSGTEFTLTISILQSEDFAVYFCMQSKSYPITFGQGTKLEIKRTVAAPSVFIFPPSDEQLKSGTASVVCLLNNFYPREAKVQWKVDNALQSGNSQESVTEQDSKDSTYSLSSTLTLSKADYEKHKVYACEVTHQGLSSPVTKSFNRGEC
heavy: not shown
notes: IgG1 subtype; full-length TNFR2 antibody with 4-1BB scFv at the C-terminus of the heavy chains
Question: What does the source list for B2?
Answer: Kd [1]: 207 pM; koff [1]: 8.04e-05 s⁻¹; kon [1]: 389000 M⁻¹ s⁻¹; Kd [2]: 18100 pM; koff [2]: 0.00546 s⁻¹; kon [2]: 302000 M⁻¹ s⁻¹; EC50 (read off the curve) [3]: ~200 pM

B3: Antibody J1 (bispecific antibody, human IgG1, kappa)
light: DIQMTQSPSSLSASLGDRVTISCSASQGISNYLNWYQQKPDGTVKLLIYYTSTLHSGVPSRFSGSGSGTDYTLTISSLQPEDIATYYCQQYSKLPWTFGGGTKLEIKRTVAAPSVFIFPPSDEQLKSGTASVVCLLNNFYPREAKVQWKVDNALQSGNSQESVTEQDSKDSTYSLSSTLTLSKADYEKHKVYACEVTHQGLSSPVTKSFNRGEC
heavy: not shown
notes: IgG1 subtype; full-length 4-1BB antibody with TNFR2 VHH at the C-terminus of the heavy chains
Question: With B3 as the binder, how does the Kd [1] read?
Answer: 1820 pM

Question: And the koff [1]?
Answer: 0.000394 s⁻¹

Question: And the kon [1]?
Answer: 217000 M⁻¹ s⁻¹

Question: What about the Kd [2] of the same binder?
Answer: 12200 pM

Question: And the koff [2]?
Answer: 0.00616 s⁻¹

Question: What about the kon [2] of the same binder?
Answer: 503000 M⁻¹ s⁻¹

Question: What about the “EC50 (read off the curve)” value [3] of the same binder?
Answer: ~200 pM

B4: Antibody M1 (bispecific antibody, human IgG1, kappa)
light: DIQMTQSPSSLSASLGDRVTISCSASQGISNYLNWYQQKPDGTVKLLIYYTSTLHSGVPSRFSGSGSGTDYTLTISSLQPEDIATYYCQQYSKLPWTFGGGTKLEIKRTVAAPSVFIFPPSDEQLKSGTASVVCLLNNFYPREAKVQWKVDNALQSGNSQESVTEQDSKDSTYSLSSTLTLSKADYEKHKVYACEVTHQGLSSPVTKSFNRGEC
heavy: not shown
notes: IgG1 subtype; full-length 4-1BB antibody with TNFR2 VHH at the N-terminus of the heavy chains
Question: What does the source list for B4?
Answer: Kd [1]: 1280 pM; koff [1]: 0.000394 s⁻¹; kon [1]: 308000 M⁻¹ s⁻¹; Kd [2]: 17500 pM; koff [2]: 0.00647 s⁻¹; kon [2]: 369000 M⁻¹ s⁻¹; EC50 (read off the curve) [3]: ~200 pM
